These results are taken from publication PMC11430298, “Complexes of HMO1 with DNA: Structure and Affinity”.

This data set addresses T1, HMO1 (Saccharomyces cerevisiae, UniProt Q03973 1-246).
T1 sequence: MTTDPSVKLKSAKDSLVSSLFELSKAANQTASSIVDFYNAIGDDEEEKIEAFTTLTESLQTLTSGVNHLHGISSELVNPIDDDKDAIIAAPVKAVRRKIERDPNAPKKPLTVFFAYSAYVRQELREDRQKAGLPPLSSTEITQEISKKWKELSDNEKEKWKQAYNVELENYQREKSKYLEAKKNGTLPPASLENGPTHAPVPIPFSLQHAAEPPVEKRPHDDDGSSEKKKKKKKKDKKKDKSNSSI
Kind of data set: EMSA; apparent Kd from Hill fit of free DNA; 6 nM DNA; EMSA: 17 mM HEPES pH 7.6, 2 mM Tris-HCl, 0.8 mM Na3EDTA, 0.11 mM 2-mercaptoethanol, 11 mM NaCl, 1.1% glycerol, 12% sucrose; 6 nM DNA, 10-800 nM HMO1, 30 min at. The settings on record: protein: recombinant, tags: N-terminal His6 (pET15b), blunt.

B1: SO duplex (IFHL site) (dsDNA)
DNA 1: ACTACGCTCTAGGCAGAGTTCACC
DNA 2: GGTGAACTCTGCCTAGAGCGTAGT
With B1, the Kd (label: 5'-Cy3 on strand 2 (S6)) was found to be 62 nM.

B2: RO duplex (randomized sequence) (dsDNA)
DNA 1: CTATCGGCACACTTCACGGCACAC
DNA 2: GTGTGCCGTGAAGTGTGCCGATAG
As for B2, the Kd (label: 5'-Cy3 on strand 1 (S3)) worked out at 128 nM.
